The values that follow are results of earlier work, collected in patent US20180161372A1, “COMPOSITION FOR TREATING BRAIN LESIONS” (ORGANES TISSUS REGENERATION REPARATION REMPLACEMENT - OTR3, priority 2015, published 2018).

The data set deals with patients. The following applies: strictly selected stroke patients.

As for “rt-PA: t-PA (tissue plasminogen activator), thrombolysis approved for ischemic stroke”, the “patients developing a cerebral hemorrhage following administration” value is 13%.
